This note sets out measurements from PMC5915145, “CNPY2 inhibits MYLIP-mediated AR protein degradation in prostate cancer cells” (Oncotarget, 2018).

The target of this assay is T1, recombinant UBE2D1-His (UniProt P51668 1-147).
T1 construct: UBE2D1 (UbcH5a), E2 ubiquitin conjugating enzyme; The methods of the pull-down call it UBE2D-His; also called UBE2D-His; source: E. coli, recombinant (pET29a (+) or pGEX4T1 vector); purification not described; not shown: His, C-terminal, kept
As to the kind of experiment: pull-down; GST-RING (8 ug) on Glutathione Sepharose beads with recombinant UBE2D-His (5 ug) or immunoprecipitated FLAG-CNPY2 (5 or 15 ug), 4 C, 30 min; 50 mM Tris-HCl pH 7.5, 150 mM NaCl, 5 mM EDTA, 0.5% NP40; immunoblotting. The settings on record: both partners purified.

T1 sequence (P51668 whole entry): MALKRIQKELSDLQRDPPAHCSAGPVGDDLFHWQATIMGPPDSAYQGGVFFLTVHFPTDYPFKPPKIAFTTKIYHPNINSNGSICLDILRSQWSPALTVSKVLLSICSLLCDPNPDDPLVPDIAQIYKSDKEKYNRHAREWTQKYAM

B1: recombinant GST-fused RING domain of MYLIP (344-445 a.a.) (domain or fragment, UniProt Q8WY64 344-445, looked up)
chain: QSPSHSPLKSSESSMNCSSCEGLSCQQTRVLQEKLRKLKEAMLCMVCCEEEINSTFCPCGHTVCCESCAAQLQSCPVCRSRVEHVQHVYLPTHTSLLNLTVI
notes: MYLIP, RING domain, residues 344-445; Held on Glutathione Sepharose beads in the pull-down; pGEX4T1 vector); also called GST-RING; MYLIP RING; source: E. coli BL21 (DE3), purified (Glutathione Sepharose, eluted with 40 mM reduced glutathione); not shown: GST, N-terminal, kept
Consider B1, for which the binding result is listed as “binds”.
